Laboratory results from patent US20260022144A1, “ANALGESIC POLYPEPTIDE” (Shanghai Puyou Biomedical Co., Ltd., priority 2022, published 2026).

How the values were obtained:
[1] = system: VZV-induced pain model in rats; assay: VZV-induced pain model in rats, mechanical allodynia (von Frey) test; type: in vivo, rat; details: 10 mg polypeptide/kg i.v., single administration, tested 0.5 h after administration
Protocol: A summary of the method for inducing pain model in rats by means of subcutaneous VZV inoculation is provided hereinafter. Briefly, male Sprague Dawley (SD) rats were deeply anesthetized by intraperitoneal injection of a Zoletil R: 50 (30 mg/kg)/xylazine (6 mg/kg) anesthetic at an injection volume of 6 mL/kg, and then the virus inoculation was performed by subcutaneous injection at the footpad area. The infection dose was 22800 TCID50 per animal, and the infection volume was 150 μL for all rats.
Administration was performed on alternate days. Briefly, the test articles were administered by subcutaneous injection at the footpad area on Day 1 and Day 3, respectively. As for Group 2, the administration of SEQ ID NO: 29 was initiated from the first concentration. Namely, the first concentration (10 μg/mL) was administered on Day 1, and the second concentration (20 μg/mL) was administered on Day 3. Pain was measured once after each administration.
Mechanical allodynia tests (also called “von Frey tests”) for pain measurements were performed on the rats one hour after administration of the test articles on Day 1 and Day 3, respectively. In the behavioral test for rats, mechanical allodynia is expressed as the 50% paw withdrawal threshold (PWT), which is calculated according to the following formula:
[formula] • wherein • Xf=final test fiber value used in the test • k=tabular value for the pattern of positive/negative responses (Chaplan et al. 1994, page 62) • δ=mean difference.
Briefly, the rats were placed individually in plexiglass boxes with a grid at the bottom to ensure that the rats' feet could be tested. The rats were acclimated to the environment for 15 minutes prior to the test. After the acclimation was completed, pain (mechanical allodynia) was tested on the center of the sole of the left hind foot of the rats using test fibers. The test fibers included 8 test strengths: 3.61 (0.4 g), 3.84 (0.6 g), 4.08 (lg), 4.31 (2 g), 4.56 (4 g), 4.74 (6 g), 4.93 (8 g) and 5.18 (15 g). During the test, the test fibers were pressed vertically against the skin and forces were applied to bend the fibers for 6-8 seconds with a 5-second interval between each test. During the test, a pain response was recorded if the animals quickly withdrew their feet. The pain response was also recorded if the animal withdrew their feet as the test fibers left the animal's skin. The pain response was not recorded if the animal moved or ambulated, and the test should be repeated. The test was started with 4.31 (2 g). If the animal had pain response, the next test should be performed with a test fiber with a lower strength: if the animal has no pain response, the next test should be performed with a test fiber with a higher strength. The maximum strength of the tested fibers was 5.18 (15 g). The test results were recorded in a table, wherein the presence of pain response was recorded as “x”, and the absence of pain response was recorded as “0”.
The rats were randomly divided into 2 groups, with 8 rats in the placebo group (Group 1, administered with vehicle (normal saline)) and 8 rats in the treatment group (Group 2, administered with 30 mg SEQ ID NO: 29/kg). Briefly, the test articles were administered to the rats on a single day by intravenous injection.
Mechanical allodynia tests were performed on the rats 0.5 h after administration of the test articles according to the method as recited in Example 1, respectively.
The rats were randomly divided into 3 groups, with 8 rats in the placebo group (Group 1, administered with vehicle (normal saline)) and 16 rats in the treatment groups (Groups 2 and 3, 8 rats/group, administered with various polypeptides). Briefly, vehicle (normal saline) was administered to the rats from Group 1 and various polypeptides were administered to the rats from Group 2 (SEQ ID: 29, SEQ ID: 57 and SEQ ID: 49; 10 mg polypeptide/kg) and 3 (SEQ ID: 75 and SEQ ID: 28: 10 mg polypeptide/kg) on a single day by intravenous injection.

[2] = system: SNL pain model in rats; assay: SNL (spinal nerve ligation) pain model in rats, mechanical allodynia test; type: in vivo, rat; details: SD rats, i.v. single administration (SEQ ID NO: 29 30 and 60 mg/kg; SEQ ID NO: 90 and 93 60 mg/kg), 1 h after administration
Protocol: A summary of the method for inducing pain model in rats by means of spinal nerve ligation is provided hereinafter. Briefly, male SD rats were anesthetized with Zoletil R 50+xylazine hydrochloride (20 mg/kg+8 mg/kg, intraperitoneal injection). The surgical areas on the waist regions of the animals were shaved, and the skin was disinfected with iodophor and 70% v/v ethanol for three times. The left spinal nerves L5 and L6 of the animals were isolated, tightly ligated with 6-0 silk suture, and the wounds were sutured.
On the 11th day post operation, the animals were acclimated to the experimental environment, 15 minutes/day, for 3 consecutive days.
Briefly, after SNL modeling, 24 animals were randomly divided into 3 groups (Groups 2, 3 and 4, N=8/group). Group 1 (a Sham group, for which the 10 animals received essentially the same operation procedure as other groups but their left spinal nerves L5 and L6 were neither isolated nor ligated) was used as the control group. The test articles were administrated to the animals according to the protocol shown in Table 5, and mechanical allodynia tests were respectively performed 1h after administration according to the method as recited in Example 1.
Briefly, after SNL modeling, 30 animals were randomly divided into 3 groups (Group 1, N=6/group; Groups 2 and 3, N=12/group). Various polypeptides of the present disclosure were administered to the animals from Groups 2 and 3, and the animals were subjected to mechanical allodynia tests 1 h after administration according to the method as recited in Example 1.

Molecule | analgetic effect (50% PWT) [1] | analgetic effect (50% PWT) [2]
SEQ ID NO: 49: artificial polypeptide of formula (III) X-Y (protein) STKKQPVDLGLLETDSEFTEFPATSWAGLSESESAHVWTSNWDSSNVTSDFSNQLRATVLLMILVCETPYGCYVLHQKGRMCSAFLCC | apparent analgetic effect | 
SEQ ID NO: 90: artificial polypeptide of formula (VI) X-Y (protein) STKKQPVDLGLLETDSEFTEFPATSWAGLSESESAHVWTSNWDSSNVTSDFSNQLRATVLLMILVAETPYGAYVLHQKGRMASAFLAA |  | certain analgetic effect
SEQ ID NO: 57: artificial polypeptide of formula (I) X-Y; also listed for peripheral neuropathic pain (protein) SEKKQPVDLGLLEEDDEFEEFPAEDWAGLDEDEDAHVWEDNWDDDNVTSDFSNQLRATVLLMI | apparent analgetic effect | 
SEQ ID NO: 75: artificial polypeptide of formula (I) X-Y (protein) SEKKQPVDLGLLEEDDEFEEFPAEDWAGLDEDEDAHVWEDNWDDDNVEDDFSNQLRATVLLMILVAETPYGAYV | apparent analgetic effect | 
SEQ ID NO: 28: polypeptide of SEQ ID NO: 28 for treating or preventing peripheral neuropathic pain (protein) SEKKQPVDLGLLEEDDEFEEFPAEDWAGLDEDEDAHVWEDNWDDDNVEDDFSNQLRATVLLMILVCETPYGCYVLHQKGRMCSAFLCC | apparent analgetic effect | 
SEQ ID NO: 93: artificial polypeptide of formula (VI) or (I) X-Y (protein) SEKKQPVDLGLLEEDDEFEEFPAEDWAGLDEDESAHVWEDNWDDDNVTSDFSNQLRATVLLMILVAETPYGAYVLHQKGRMASAFLAA |  | certain analgetic effect
